This is an account of results in article PMC4509546, “Structural Characterization of the Chaetomium thermophilum TREX-2 Complex and its Interaction with the mRNA Nuclear Export Factor Mex67:Mtr2” (Structure(London, England:1993), 2015).

A word on the Kd: it is the constant that tells how readily two partners part at equilibrium. As usually defined, the koff is the first-order rate constant of dissociation. Low values mean a long-lived complex, high ones a short-lived complex. For orientation: kon means the rate constant with which the complex forms. Low values mean slow association, high ones fast association.

The target of test [1] is GST-tagged ctSac3N^(1-210) (Chaetomium thermophilum) (UniProt G0SGL4). In words: SPR; GST-tagged ligands captured by anti-GST antibody on CM5 chip; ctMex67:Mtr2 injected at 0.11-10 μM for 120 s, dissociation 600 s; BIAcore T200, 30 μl/min, 25°C, 20 mM Na-HEPES pH 7.5, 400 mM NaCl, 2 mM MgCl2, 5% glycerol, 0.01% NP-40; double exponential fits. (In general: Surface plasmon resonance follows binding to a sensor surface in real time, without labels.)

Test [2] has as its target GST-tagged ctMlp1^(1797-1960) (Chaetomium thermophilum). Described as above.
Test [3] addresses GST-tagged ctNup145^(213-567) (Chaetomium thermophilum). Described as above.
Test [4] has as its target T1, C. thermophilum TREX-2 CID region complex (ctSac3^CID:ctSus1:ctCdc31) (Chaetomium thermophilum, UniProt G0SGL4 1086-1170; G0S6Y1 1-168; G0SAR7 1-177).
T1 construct: as m1; Sus1, Chaetomium thermophilum, locus CTHT_0027270; as m2; as m3; Used here for the SPR of 'the ctSac3 CID region' with Sac3N; also called ctSac3 CID region; CID region of TREX-2; source: E. coli, co-expressed, purified (GSH, TEV cleavage, size-exclusion chromatography); copies: 1 + 1 + 1
T1 sequence 1: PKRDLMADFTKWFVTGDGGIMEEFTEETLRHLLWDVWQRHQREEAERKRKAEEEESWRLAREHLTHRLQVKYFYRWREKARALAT
T1 sequence 2: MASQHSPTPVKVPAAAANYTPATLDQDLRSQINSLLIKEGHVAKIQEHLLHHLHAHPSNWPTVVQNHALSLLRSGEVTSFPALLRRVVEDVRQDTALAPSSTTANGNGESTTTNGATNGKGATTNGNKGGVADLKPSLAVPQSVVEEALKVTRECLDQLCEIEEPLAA
T1 sequence 3: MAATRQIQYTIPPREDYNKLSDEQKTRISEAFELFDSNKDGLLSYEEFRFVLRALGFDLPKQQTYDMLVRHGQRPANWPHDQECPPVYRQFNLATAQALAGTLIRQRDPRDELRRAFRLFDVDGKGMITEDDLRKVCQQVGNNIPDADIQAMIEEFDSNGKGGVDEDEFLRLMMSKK
In words: SPR; ctSac3 CID region with the Sac3N FG region; who was immobilised is not told in the text (Figure S2); general SPR conditions: BIAcore T200, 25°C, 20 mM Na-HEPES pH 7.5, 400 mM NaCl, 2 mM MgCl2, 5% glycerol, 0.01% NP-40. Conditions: both partners purified.

Chain of GST-tagged ctMlp1^(1797-1960) (Chaetomium thermophilum) (G0SA56 1797-1960): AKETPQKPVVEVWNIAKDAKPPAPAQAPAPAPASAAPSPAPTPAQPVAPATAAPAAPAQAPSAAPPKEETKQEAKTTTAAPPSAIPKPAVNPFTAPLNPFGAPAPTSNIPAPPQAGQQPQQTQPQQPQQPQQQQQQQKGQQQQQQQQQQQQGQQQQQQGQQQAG

In the case of ctMex67:Mtr2 complex, in test [1], the KD1 was 39 nM, the KD2 is 148 nM, the koff1 turned out to be 0.073 s⁻¹ and the koff2 is 0.0049 s⁻¹. In test [1], this molecule showed a kon1 of 1.9e+06 M⁻¹ s⁻¹ and a kon2 of 33000 M⁻¹ s⁻¹. In test [2], this molecule returned a KD1 of 309 nM, a KD2 of 419 nM, a koff1 of 0.071 s⁻¹ and a koff2 of 0.0088 s⁻¹. For the same molecule, in test [2], the kon1 turned out to be 230000 M⁻¹ s⁻¹ and the kon2 amounted to 21000 M⁻¹ s⁻¹. In test [3], the KD1 worked out at 238 nM, the KD2 worked out at 264 nM, the koff1 was found to be 0.071 s⁻¹ and the koff2 is 0.0074 s⁻¹. In test [3], this molecule displayed a kon1 of 300000 M⁻¹ s⁻¹ and a kon2 of 28000 M⁻¹ s⁻¹.

B1: GST-tagged ctSac3N^(1-210) (domain or fragment, Chaetomium thermophilum, UniProt G0SGL4 1-210, looked up)
chain: MMAPANNPFGAPPAQVNNPFASPAPSNQGSSVFGAPAQSTFGAPSSNNPFGASSAKPSGAPAANPFGAPIKNPFGASAQNAQNKPFGAPTAGNGSSLAAANPFGAASGQTSAFGSTPAGSAPQSKGSSRQPSPAGRQNQSGRQQANLVGAPQGPSGKKRTPSPFDTRQRTQAPSKRAQASEESDSDAMSGRKSKGKGFGGLKSQPPAANK
notes: also called GST-Sac3N; GST-Sac3; source: E. coli (general method), captured on an anti-GST antibody-coated CM5 chip
In test [4], B1 came in with a Kd of 2200 nM, a koff of 0.00052 s⁻¹ and a kon of 235 M⁻¹ s⁻¹.
